Source: paper PMC9482650, “Quantitative fragmentomics allow affinity mapping of interactomes” (Nature Communications, 2022)

T1: APBA3_1, O96018
T1 sequence (O96018 389-490, limits assumed, looked up): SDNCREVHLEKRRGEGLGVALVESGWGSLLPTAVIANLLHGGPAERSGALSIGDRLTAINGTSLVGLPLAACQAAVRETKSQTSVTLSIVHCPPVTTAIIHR

T2: ARHGAP21, Q5T5U3
T2 sequence (Q5T5U3 45-169, limits assumed, looked up): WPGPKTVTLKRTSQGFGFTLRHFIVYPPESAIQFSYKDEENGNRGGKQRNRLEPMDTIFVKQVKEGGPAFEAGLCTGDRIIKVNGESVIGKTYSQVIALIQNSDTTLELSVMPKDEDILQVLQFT

T3: CARD11, Q9BXL7
T3 sequence (Q9BXL7 662-765, limits assumed, looked up): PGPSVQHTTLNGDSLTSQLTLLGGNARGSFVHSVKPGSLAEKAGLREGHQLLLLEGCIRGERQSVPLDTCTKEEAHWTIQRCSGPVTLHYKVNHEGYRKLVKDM

T4: DVL3, Q92997
T4 sequence (Q92997 244-331, limits assumed, looked up): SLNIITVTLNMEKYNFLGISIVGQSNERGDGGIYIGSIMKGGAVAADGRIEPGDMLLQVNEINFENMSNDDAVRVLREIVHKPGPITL

T5: MPDZ_10, O75970
T5 sequence (O75970 1624-1722, limits assumed, looked up): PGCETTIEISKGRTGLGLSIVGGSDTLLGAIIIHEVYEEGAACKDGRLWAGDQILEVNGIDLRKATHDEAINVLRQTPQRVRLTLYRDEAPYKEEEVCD

T6: MPP7, Q5T2T1
T6 sequence (Q5T2T1 134-230, limits assumed, looked up): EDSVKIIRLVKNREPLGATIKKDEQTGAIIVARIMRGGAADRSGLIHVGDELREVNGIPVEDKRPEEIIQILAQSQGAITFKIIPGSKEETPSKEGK

T7: NHERF3_4, Q5T2W1
T7 sequence (Q5T2W1 373-468, limits assumed, looked up): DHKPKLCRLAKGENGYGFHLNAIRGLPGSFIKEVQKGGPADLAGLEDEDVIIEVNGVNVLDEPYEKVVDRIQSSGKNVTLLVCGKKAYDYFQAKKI

T8: RADIL, Q96JH8
T8 sequence (Q96JH8 971-1071, limits assumed, looked up): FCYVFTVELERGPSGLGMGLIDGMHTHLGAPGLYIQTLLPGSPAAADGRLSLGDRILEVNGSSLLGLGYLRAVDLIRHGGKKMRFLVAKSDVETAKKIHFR


Tests used:
Assay in all cases: holdup assay
Parameters in all cases: key: below the threshold = too weak to quantify, mostly under pKd 3.1 to 4
Settings in all cases: plain residues with an end cap or a label only (N-terminal biotin on a linker: ado-ado)
APBA3_1, O96018 = target: T1, APBA3_1, O96018
ARHGAP21, Q5T5U3 = target: T2, ARHGAP21, Q5T5U3
ARHGEF12, Q9NZN5-2 = target: ARHGEF12, Q9NZN5-2
Sequence of ARHGEF12, Q9NZN5-2 (Q9NZN5 other isoform, or with tags, fused parts or gaps): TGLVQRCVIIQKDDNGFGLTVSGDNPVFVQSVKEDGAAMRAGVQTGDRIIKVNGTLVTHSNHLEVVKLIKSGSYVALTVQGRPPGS

CARD11, Q9BXL7 = target: T3, CARD11, Q9BXL7
DLG2_2, Q15700 = target: DLG2_2, Q15700
Sequence of DLG2_2, Q15700 (Q15700 189-283): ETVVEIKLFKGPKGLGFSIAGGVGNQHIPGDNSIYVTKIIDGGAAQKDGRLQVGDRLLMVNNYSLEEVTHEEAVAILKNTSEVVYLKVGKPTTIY

DLG4_1, P78352 = target: DLG4_1, P78352
Sequence of DLG4_1, P78352 (P78352 62-152): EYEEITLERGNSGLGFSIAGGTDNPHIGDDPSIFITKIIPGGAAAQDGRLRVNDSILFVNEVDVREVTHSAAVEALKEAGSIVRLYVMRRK

DVL3, Q92997 = target: T4, DVL3, Q92997
FRMPD2_3, Q68DX3 = target: FRMPD2_3, Q68DX3
Sequence of FRMPD2_3, Q68DX3 (Q68DX3 1073-1166): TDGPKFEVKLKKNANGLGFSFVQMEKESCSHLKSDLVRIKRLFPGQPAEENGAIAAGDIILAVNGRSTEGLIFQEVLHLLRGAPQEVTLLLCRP

FRMPD4, Q14CM0 = target: FRMPD4, Q14CM0
Sequence of FRMPD4, Q14CM0 (Q14CM0 67-160): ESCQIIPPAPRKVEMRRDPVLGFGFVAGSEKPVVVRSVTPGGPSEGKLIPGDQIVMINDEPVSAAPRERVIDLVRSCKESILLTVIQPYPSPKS

GORASP1, Q9BQQ3 = target: GORASP1, Q9BQQ3
Sequence of GORASP1, Q9BQQ3 (Q9BQQ3 1-208): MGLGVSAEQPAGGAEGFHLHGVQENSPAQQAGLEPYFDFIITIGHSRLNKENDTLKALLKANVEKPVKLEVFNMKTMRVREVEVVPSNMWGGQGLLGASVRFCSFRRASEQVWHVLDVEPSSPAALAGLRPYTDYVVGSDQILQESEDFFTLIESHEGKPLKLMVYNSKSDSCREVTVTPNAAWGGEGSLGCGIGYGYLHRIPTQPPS

GRIP2_5, Q9C0E4 = target: GRIP2_5, Q9C0E4
Sequence of GRIP2_5, Q9C0E4 (Q9C0E4 544-642): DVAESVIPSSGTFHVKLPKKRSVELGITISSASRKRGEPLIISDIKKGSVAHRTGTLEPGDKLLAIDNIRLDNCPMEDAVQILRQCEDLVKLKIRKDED

Inadl_10, Q8NI35 = target: Inadl_10, Q8NI35
Sequence of Inadl_10, Q8NI35 (Q8NI35 1673-1763): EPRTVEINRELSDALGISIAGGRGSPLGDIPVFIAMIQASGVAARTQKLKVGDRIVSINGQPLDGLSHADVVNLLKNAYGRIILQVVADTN

Inadl_6, Q8NI35 = target: Inadl_6, Q8NI35
Sequence of Inadl_6, Q8NI35 (Q8NI35 1058-1167): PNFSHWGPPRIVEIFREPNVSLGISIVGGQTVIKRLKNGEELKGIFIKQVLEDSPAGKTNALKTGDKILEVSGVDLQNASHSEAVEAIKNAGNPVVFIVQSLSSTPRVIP

Inadl_9, Q8NI35 = target: Inadl_9, Q8NI35
Sequence of Inadl_9, Q8NI35 (Q8NI35 1530-1615): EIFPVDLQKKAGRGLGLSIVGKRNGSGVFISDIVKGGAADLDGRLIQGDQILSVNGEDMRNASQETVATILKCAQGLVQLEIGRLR

LDB3, O75112 = target: LDB3, O75112
Sequence of LDB3, O75112 (O75112 1-94): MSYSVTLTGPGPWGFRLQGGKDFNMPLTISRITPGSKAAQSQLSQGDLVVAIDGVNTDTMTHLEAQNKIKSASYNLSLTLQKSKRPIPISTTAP

LNX1_1, Q8TBB1 = target: LNX1_1, Q8TBB1
Sequence of LNX1_1, Q8TBB1 (Q8TBB1 261-371): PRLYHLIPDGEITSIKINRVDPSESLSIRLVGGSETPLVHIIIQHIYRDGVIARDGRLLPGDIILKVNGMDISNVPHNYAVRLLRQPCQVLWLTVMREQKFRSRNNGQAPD

LNX1_2, Q8TBB1 = target: LNX1_2, Q8TBB1
Sequence of LNX1_2, Q8TBB1 (Q8TBB1 371-470): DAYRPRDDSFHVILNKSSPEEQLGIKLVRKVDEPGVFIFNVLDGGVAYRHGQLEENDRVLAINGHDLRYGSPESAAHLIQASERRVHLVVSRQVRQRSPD

MAGI1_1, Q96QZ7 = target: MAGI1_1, Q96QZ7
Sequence of MAGI1_1, Q96QZ7 (Q96QZ7 1-106): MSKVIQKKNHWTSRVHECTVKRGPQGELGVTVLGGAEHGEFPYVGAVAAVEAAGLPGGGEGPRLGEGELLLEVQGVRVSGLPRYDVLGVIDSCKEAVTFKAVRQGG

MAGI2_2, Q86UL8 = target: MAGI2_2, Q86UL8
Sequence of MAGI2_2, Q86UL8 (Q86UL8 410-522): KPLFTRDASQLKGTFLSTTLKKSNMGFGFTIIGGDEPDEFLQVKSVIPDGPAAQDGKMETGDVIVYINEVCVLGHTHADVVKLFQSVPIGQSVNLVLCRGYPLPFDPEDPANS

MAGI2_3, Q86UL8 = target: MAGI2_3, Q86UL8
Sequence of MAGI2_3, Q86UL8 (Q86UL8 600-682): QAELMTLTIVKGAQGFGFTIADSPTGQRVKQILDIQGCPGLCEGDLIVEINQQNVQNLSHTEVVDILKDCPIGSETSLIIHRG

MAGI2_4, Q86UL8 = target: MAGI2_4, Q86UL8
Sequence of MAGI2_4, Q86UL8 (Q86UL8 772-865): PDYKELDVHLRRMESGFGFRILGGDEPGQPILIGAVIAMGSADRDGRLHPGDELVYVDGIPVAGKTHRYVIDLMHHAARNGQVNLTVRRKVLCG

MAGI3_2, Q5TCQ9 = target: MAGI3_2, Q5TCQ9
Sequence of MAGI3_2, Q5TCQ9 (Q5TCQ9 398-503): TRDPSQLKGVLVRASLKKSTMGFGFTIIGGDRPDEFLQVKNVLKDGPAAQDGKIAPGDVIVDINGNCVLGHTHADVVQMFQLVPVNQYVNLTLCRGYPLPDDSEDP

MPDZ_10, O75970 = target: T5, MPDZ_10, O75970
MPP7, Q5T2T1 = target: T6, MPP7, Q5T2T1
NHERF3_4, Q5T2W1 = target: T7, NHERF3_4, Q5T2W1
NOS1, P29475 = target: NOS1, P29475
Sequence of NOS1, P29475 (P29475 9-101): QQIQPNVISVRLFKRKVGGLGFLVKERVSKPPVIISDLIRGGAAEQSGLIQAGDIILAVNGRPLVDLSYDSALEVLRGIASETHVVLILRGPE

PDZRN4_1, Q6ZMN7 = target: PDZRN4_1, Q6ZMN7
Sequence of PDZRN4_1, Q6ZMN7 (Q6ZMN7 213-318): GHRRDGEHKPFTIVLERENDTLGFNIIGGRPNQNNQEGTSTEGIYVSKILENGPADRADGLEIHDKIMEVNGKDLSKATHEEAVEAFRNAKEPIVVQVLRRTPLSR

PTPN3, P26045 = target: PTPN3, P26045
Sequence of PTPN3, P26045 (P26045 505-587): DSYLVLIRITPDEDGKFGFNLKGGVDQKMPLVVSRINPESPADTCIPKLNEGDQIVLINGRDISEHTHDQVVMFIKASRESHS

RADIL, Q96JH8 = target: T8, RADIL, Q96JH8
SCRIB_3, Q14160 = target: SCRIB_3, Q14160
Sequence of SCRIB_3, Q14160 (Q14160 999-1103): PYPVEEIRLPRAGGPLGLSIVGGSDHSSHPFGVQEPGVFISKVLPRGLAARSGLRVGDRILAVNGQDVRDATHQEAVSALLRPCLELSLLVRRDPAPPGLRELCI

Binder | pKd (APBA3_1, O96018) | pKd (ARHGAP21, Q5T5U3) | pKd (ARHGEF12, Q9NZN5-2) | pKd (CARD11, Q9BXL7) | pKd (DLG2_2, Q15700) | pKd (DLG4_1, P78352) | pKd (DVL3, Q92997) | pKd (FRMPD2_3, Q68DX3) | pKd (FRMPD4, Q14CM0) | pKd (GORASP1, Q9BQQ3) | pKd (GRIP2_5, Q9C0E4) | pKd (Inadl_10, Q8NI35) | pKd (Inadl_6, Q8NI35) | pKd (Inadl_9, Q8NI35) | pKd (LDB3, O75112) | pKd (LNX1_1, Q8TBB1) | pKd (LNX1_2, Q8TBB1) | pKd (MAGI1_1, Q96QZ7) | pKd (MAGI2_2, Q86UL8) | pKd (MAGI2_3, Q86UL8) | further results
VRPGVKESLV [SCN4A, P35499] | below the threshold | below the threshold | below the threshold | below the threshold | 5.23 | 4.98 | below the threshold | below the threshold | below the threshold | below the threshold | below the threshold | below the threshold | 3.54 | 3.71 | below the threshold | 3.89 | below the threshold | below the threshold | 5.2 | 4.51 | pKd (MAGI2_4, Q86UL8): 4.37; pKd (MAGI3_2, Q5TCQ9): 5.52; pKd (MPDZ_10, O75970): below the threshold; pKd (MPP7, Q5T2T1): below the threshold; pKd (NHERF3_4, Q5T2W1): below the threshold; pKd (NOS1, P29475): 3.97; pKd (PDZRN4_1, Q6ZMN7): 4.25; pKd (PTPN3, P26045): 4.78; pKd (RADIL, Q96JH8): 4.22; pKd (SCRIB_3, Q14160): 4.34
LDKESFLTWL [YAP1, P46937] | below the threshold | 4.89 | 4.84 | 3.64 | below the threshold | below the threshold | 4.64 | below the threshold | 5.25 | 5.11 | below the threshold | 5.45 | 5.66 | 3.99 | 4.36 | 4.25 | below the threshold | 3.65 | 3.55 | below the threshold | pKd (MAGI2_4, Q86UL8): 3.94; pKd (MAGI3_2, Q5TCQ9): 4.75; pKd (MPDZ_10, O75970): below the threshold; pKd (MPP7, Q5T2T1): 3.72; pKd (NHERF3_4, Q5T2W1): 4.18; pKd (NOS1, P29475): 4.03; pKd (PDZRN4_1, Q6ZMN7): 4.1; pKd (PTPN3, P26045): 4.62; pKd (RADIL, Q96JH8): 5.51; pKd (SCRIB_3, Q14160): 5.02
RDFDYIADWC [PKN2, Q16513] | below the threshold | 3.71 | below the threshold | below the threshold | below the threshold | below the threshold | below the threshold | below the threshold | below the threshold | below the threshold | below the threshold | below the threshold | 3.56 | 4.34 | below the threshold | below the threshold | 3.83 | below the threshold | below the threshold | below the threshold | pKd (MAGI2_4, Q86UL8): 3.53; pKd (MAGI3_2, Q5TCQ9): below the threshold; pKd (MPDZ_10, O75970): 3.87; pKd (MPP7, Q5T2T1): below the threshold; pKd (NHERF3_4, Q5T2W1): below the threshold; pKd (NOS1, P29475): 4.12; pKd (PDZRN4_1, Q6ZMN7): below the threshold; pKd (PTPN3, P26045): 3.85; pKd (RADIL, Q96JH8): 4.2; pKd (SCRIB_3, Q14160): 3.49
NRVDSKETEC [ADAM17, P78536] | below the threshold | below the threshold | 3.95 | below the threshold | 4.25 | 4.32 | below the threshold | below the threshold | below the threshold | below the threshold | below the threshold | below the threshold | below the threshold | below the threshold | below the threshold | below the threshold | below the threshold | 3.53 | below the threshold | 3.64 | pKd (MAGI2_4, Q86UL8): 3.53; pKd (MAGI3_2, Q5TCQ9): below the threshold; pKd (MPDZ_10, O75970): below the threshold; pKd (MPP7, Q5T2T1): 3.65; pKd (NHERF3_4, Q5T2W1): 3.49; pKd (NOS1, P29475): below the threshold; pKd (PDZRN4_1, Q6ZMN7): below the threshold; pKd (PTPN3, P26045): 4.98; pKd (RADIL, Q96JH8): below the threshold; pKd (SCRIB_3, Q14160): 4.58
